Experiments:
[1] = tested on: Dorsal Root Ganglia (DRG) neurons; assay: Levels of autophagy pathway proteins (Western blot) in F11 cells differentiated into DRGs; assay type: cell-based; settings: 24 h
Protocol: The effect of NGF on autophagy in the presence and absence of sesamin was assessed on Dorsal Root Ganglia (DRG) neurons, involved in the development of NGF sensory side effects, by analysing the impact of the different treatments on the levels of the above proteins involved in autophagy pathway. F11 cells were cultured in Dulbecco's modified Eagle's medium (DMEM, Cat #D6546; Sigma-Aldrich, St. Louis, MO, USA), with 10% fetal bovine serum, 2 mM glutamine (Sigma-Aldrich, USA). Cells were incubated at 37° C. in a humidified atmosphere with 5% CO2. Cells were then seeded at 7000 cells/cm^2 and were maintained in a low serum medium for almost 2 weeks to induce differentiation into DRGs. The complete composition of the low serum medium was: DMEM supplemented 2 mM glutamine, 1% FBS (Sigma-Aldrich, St. Louis, MO, USA). The medium was replaced every 2 days. Immunofluorescence was used to confirm cell differentiation (data not shown). F11 cells maintained in 10% FBS medium were used as control (control, undifferentiated). Morphological and functional analyses were performed after two weeks of treatment with low serum, at complete differentiation of the cells. The undifferentiated control cells underwent the same analysis at 7 days to avoid dramatic cell death due to confluence. The fully differentiated cells were treated with 1 μM rhNGF alone or in combination with 30 nM Sesamin, for 24 h. Control and treated cells were collected and lysed in ice-cold RIPA buffer (Thermo Scientific, USA) with freshly added protease and phosphatase inhibitors. Protein lysates (30 μg) were separated on 4%-12% precast gel using MOPS or MES buffers (Thermo Scientific, USA) depending on the size of the proteins of interest. Then proteins were electroblotted on polyvinyldifluoride membrane (PVDF; Sigma, St Loius, USA) and nonspecific binding sites were blocked in Blocking buffer (Thermo Scientific) for 15 minutes at RT. Afterward, membranes were incubated overnight at 4° C. with the following primary antibodies, diluted in Blocking buffer: rabbit anti-Atg5 1:1000 (Abcam, ab228668, UK), rabbit anti-LC3 1:2000 (Abcam, ab192890, UK), rabbit anti-Beclin 1:2000 (Abcam, ab207612, UK), rabbit anti-P62 1:500 (Abcam, ab91526, UK), rabbit anti-vinculin 1:1000 (Abcam, ab219649, UK) and HRP-conjugated Actin 1:1000 (Cell Signaling, #5125, USA). As secondary antibodies, peroxidase-conjugated anti-rabbit IgG 1:10000 (Abcam, UK) were used. Immunoreactive bands were visualized by ECL (Thermo Scientific, USA), according to the manufacturer's instructions. The relative optical densities of the immunoreactive bands were determined and normalized with respect to those of the anti-Vinculin or anti-Actin (depending on the molecular weight of the analyzed protein and the gel/buffer used), using ImageJ software. The phosphorylated forms were normalized upon the total form.

[2] = In-use stability of rhNGF lyophilized formulation (Formulation 6) after reconstitution: oxidized NGF impurity; assay type: physicochemical
Protocol: An in-use stability study of said rhNGF lyophilized formulation (according to Formulation 6) after reconstitution with sesamin-containing reconstitution solvent B or with WFI was carried out as follows.
The tests were performed on said lyophilized formulation reconstituted in solvent B or in WFI, stored at different temperatures (+2/+8° C. or 25° C.-60% Relative Humidity), over 28 days, to verify the possible impurity formation in rhNGF reconstituted liquid formulations, in glass vials.
The impurity was determined as the percentage (w/w) of oxidized NGF in respect of the total NGF comprised in the reconstituted liquid formulation.

[3] = topical administration, 200 μg/mL NGF; cited from earlier work
[4] = tested on: patients; settings: cited from earlier work
[5] = tested on: male Sprague-Dawley rats; assay: Eye wiping test (ocular discomfort after ocular administration); assay type: in vivo; settings: 3.5 μg/ml sesamin with 20 μg/ml rhNGF in Vehicle 2
Protocol: An eye wiping test was carried out to evaluate ocular discomfort induced by ocular administration of rhNGF alone or in combination with Sesamin.
The experiments were performed on male Sprague-Dawley rats (300-320 g), Charles River, Italy) housed in the animal care facility of the Department of Pharmacy, University of Naples. Food and water were available ad libitum.
Rats were divided in 4 experimental groups:
Animals were treated with 20 μg/ml of rhNGF in Vehicle 1 (n=8);
Animals were treated with 20 μg/ml of rhNGF and 3.5 μg/ml sesamin in Vehicle 2 (n=8) All compositions tested were prepared immediately before use from lyophilized placebo or rhNGF reconstituted in a volume of 1 mL of the vehicle.
The treatments described above were administered as eye drops 1 time per day, in a volume of 10 μL. Following the application, the eye wiping test was performed.
Animals were placed on a 50×50 cm table for 10 min habituation period. 10 μL of solutions were applied into the left eye of animals and the number of eye wipes was counted for 30 min.
All data are presented as the mean±SEM. Analysis of data were conducted using GraphPad Prism 8. Statistical analysis was performed by two-way ANOVA followed by Tukey's test for multiple comparisons, as appropriate. Statistical significance was set at *p<0.05.

[6] = differentiated F11 cells, 1 μM rhNGF alone, vs control (FIG. 1)

Molecule | level of P62 (autophagy-specific substrate) [1, 6] | levels of Atg5 [1, 6] | levels of Beclin [1, 6] | levels of LC3-I [1, 6] | levels of LC3-II [1, 6] | NGF oxidation product % ([2]; reconstituted with WFI, +2/+8° C., day 0) | NGF oxidation product % ([2]; reconstituted with WFI, +2/+8° C., day 28) | NGF oxidation product % ([2]; reconstituted with WFI, +25° C./60% Relative Humidity, day 0) | NGF oxidation product % ([2]; reconstituted with WFI, +25° C./60% Relative Humidity, day 28) | NGF oxidation product % ([2]; reconstituted with reconstitution solvent B (sesamin 1.5 μg/mL), +2/+8° C., day 0) | NGF oxidation product % ([2]; reconstituted with reconstitution solvent B (sesamin 1.5 μg/mL), +2/+8° C., day 28) | NGF oxidation product % ([2]; reconstituted with reconstitution solvent B (sesamin 1.5 μg/mL), +25° C./60% Relative Humidity, day 0) | NGF oxidation product % ([2]; reconstituted with reconstitution solvent B (sesamin 1.5 μg/mL), +25° C./60% Relative Humidity, day 28) | levels of the protein in all ocular tissues, included the retina and optic nerve [3] | time of peak increase in ocular tissues after administration [3] | primary side effect reported by patients after topical ocular administration ([4]; clinical trials or approved indications, mild and transient) | safety of topical administration on the ocular surface ([4]; clinical trials) | autophagy ([1]; 30 nM Sesamin combined with 1 μM rhNGF, vs NGF alone) | eye discomfort induced by rhNGF [5]
rhNGF: recombinant human nerve growth factor, amino acid sequence SEQ ID NO. 1 and/or SEQ ID NO. 2 | decreased | significantly increased | significantly increased | increased levels | increased levels | 4.00% | 4.86% | 4.00% | 6.48% | 3.11% | 4.21% | 3.11% | 5.06% | high levels | 6 h | eye discomfort | safe | – | –
c1cc2c(cc1[C@H]1OC[C@H]3[C@@H]1CO[C@@H]3c1ccc3c(c1)OCO3)OCO2 [sesamin, 5,5′-[(1S,3aR,4S,6aR)-Tetrahydro-1H,3H-furo[3,4-c]furan-1,4-diyl]bis(2H-1,3-benzodioxole)] | – | – | – | – | – | – | – | – | – | – | – | – | – | – | – | – | – | significantly reduced | can relieve the eye discomfort
